We go through 5 molecules from paper PMC6698652, “Boundaries of eliminated heterochromatin of Tetrahymena are positioned by the DNA-binding protein Ltl1”.

The target in data set [1] is T1, MBP-Ltl1 (Tetrahymena thermophila) (UniProt I7MGR7).
T1 sequence: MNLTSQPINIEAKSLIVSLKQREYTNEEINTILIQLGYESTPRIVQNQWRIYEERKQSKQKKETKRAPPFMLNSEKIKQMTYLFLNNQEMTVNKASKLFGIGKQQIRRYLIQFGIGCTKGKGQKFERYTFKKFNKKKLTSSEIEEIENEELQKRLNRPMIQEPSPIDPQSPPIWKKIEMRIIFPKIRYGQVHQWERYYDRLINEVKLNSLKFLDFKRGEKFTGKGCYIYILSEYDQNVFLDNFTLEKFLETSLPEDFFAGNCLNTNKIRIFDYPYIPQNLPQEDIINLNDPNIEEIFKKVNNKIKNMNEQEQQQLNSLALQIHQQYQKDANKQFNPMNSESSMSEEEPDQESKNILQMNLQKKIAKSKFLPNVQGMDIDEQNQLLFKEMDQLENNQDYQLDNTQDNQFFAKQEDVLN
In words: EMSA. To be noted: EMSA as in Carle et al. (ref 20), binding buffer and temperature not given; probes annealed in 10 mM Tris pH 7.5, 5% glycerol, 100 mM KCl; protein dialyzed in …. A general note: Mobility shift assays separate free from complexed probe on a gel.

For data set [2], the target named is T2, MBP-Ltl1 (Tetrahymena thermophila, UniProt I7MGR7 1-417).
T2 sequence: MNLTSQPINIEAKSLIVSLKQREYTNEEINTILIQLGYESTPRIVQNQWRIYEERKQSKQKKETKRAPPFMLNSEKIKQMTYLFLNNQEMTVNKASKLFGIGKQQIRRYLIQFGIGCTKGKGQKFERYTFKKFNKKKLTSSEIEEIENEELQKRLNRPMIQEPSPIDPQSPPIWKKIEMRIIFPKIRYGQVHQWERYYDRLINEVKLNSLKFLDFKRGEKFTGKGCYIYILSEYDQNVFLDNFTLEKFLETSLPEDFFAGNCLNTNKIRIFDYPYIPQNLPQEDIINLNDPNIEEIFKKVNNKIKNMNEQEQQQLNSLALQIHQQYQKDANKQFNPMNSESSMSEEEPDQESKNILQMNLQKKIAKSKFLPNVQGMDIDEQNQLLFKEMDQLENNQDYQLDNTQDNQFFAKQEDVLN
In words: EMSA; EMSA as in Carle et al. (ref 20), binding buffer and temperature not given; probes annealed in 10 mM Tris pH 7.5, 5% glycerol, 100 mM KCl; protein dialyzed in 50 mM Tris pH 7.5, 100 mM KCl, 10% glycerol, 1 mM MnSO4, 1 mM MgCl2, 1 mM ZnSO4. To be noted: protein: recombinant; MBP (pMAL fusion); label: 5' 32P; blunt.

For data set [3], the target named is T2, MBP-Ltl1. In words: EMSA; majority of probe in G-quadruplex form; EMSA as in Carle et al. (ref 20), binding buffer and temperature not given; probes annealed in 10 mM Tris pH 7.5, 5% glycerol, 100 mM KCl; protein dialyzed in 50 mM Tris pH 7.5, 100 mM KCl, 10% glycerol, 1 mM MnSO4, 1 mM MgCl2, 1 mM ZnSO4. To be noted: protein: recombinant; MBP (pMAL fusion); label: 5' 32P.

In data set [1], “GAAATTAATATAATTATAATTTTAAACAGTGTAAAACCCAAAAAGCTA (double strand) [R IES left flank -40/-88 ds (R_IES_EMSA_probe2)]” showed a Kd of 350 nM.

Consider “TTATTTGATTAATTAATTTTATTTACGGTAAAGGTTTATATATTAAGGCCACAATATAC (double strand) [D IES left flank -30/-88 ds (IESD_EMSA_probe1)]”, for which, in data set [1], the Kd amounted to 350 nM.

B1: D IES right flank -67/-120 (IESD_EMSA_R-67/120) (dsDNA)
DNA 1: TTTGAATCCTAAGATTCTACTTTATTTAGCATTTTTTATATTAAGTAATTTA
DNA 2: TAAATTACTTAATATAAAAAATGCTAAATAAAGTAGAATCTTAGGATTCAAA
With B1, the equilibrium dissociation constant (Kd) in data set [2] is ~42.5 nM.

B2: D IES left flank -70/-120 (IESD_EMSA_L-70/120) (dsDNA)
DNA 1: AAAATTTATATATATTTGAATCCTAAGATTCTGTCTTATTTGATTAATTAA
DNA 2: TTAATTAATCAAATAAGACAGAATCTTAGGATTCAAATATATATAAATTTT
For B2, the Kd in data set [2] was ~43 nM.

B3: M IES left flank G4 (M1_A5G5_FW) (structured_DNA)
DNA: TTTATTAATCAAAAAGGGGGTAAATAATAA
Turning to B3, the Kd in data set [3] was ~350 nM.

What is called Kd is the equilibrium constant for the complex coming apart.
